Results published in patent publication US20080009025A1, “PROTEIN KINASE REGULATION” (priority 1999, published 2008).

Target: PIFtide (24 residue synthetic peptide encompassing the PDK1 binding site on PIF) (human)
Experiment: method not stated

Chain of PIFtide (24 residue synthetic peptide encompassing the PDK1 binding site on PIF) (human) (peptide, as listed by the source): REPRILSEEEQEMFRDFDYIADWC

fold decrease in affinity (against wild type PDK1): 10 fold
Substance: GST-PDK1[K115A] (from UniProt O15530 1-556) (enzyme)
